B1: DHR49 (designed helical repeat protein 49) (other)
chain: MDSEEEQERIRRILKEARKSGTEESLRQAIEDVAQLAKKSQDSEVLEEAIRVILRIAKESGSEEALRQAIRAVAEIAKEAQDSEVLEEAIRVILRIAKESGSEEALRQAIRAVAEIAKEAQDPRVLEEAIRVIRQIAEESGSEEARRQAERAEEEIRRRAQGWLEHHHHHH
B2: DHR76 (designed helical repeat protein 76) (other)
chain: MNPELEEWIRRAKEVAKEVEKVAQRAEEEGNPDLRDSAKELRRAVEEAIEEAKKQGNPELVEWVARAAKVAAEVIKVAIQAEKEGNRDLFRAALELVRAVIEAIEEAVKQGNPELVEWVARAAKVAAEVIKVAIQAEKEGNRDLFRAALELVRAVIEAIEEAVKQGNPELVERVARLAKKAAELIKRAIRAEKEGNRDERREALERVREVIERIEELVRQGGWLEHHHHHH

Target: the molecule itself
Experiment: analytical size exclusion chromatography with multi-angle light scattering (SEC-MALS); self-association (homodimer)

Protein	binding result
B1	binds
B2	binds
